The values that follow come from patent US20210052695A1 (CAMBRIDGE ENTERPRISE, published 2021).

Ends that are not written are not given here. * marks the point of attachment. TAMRA = 5-carboxytetramethylrhodamine, CN(C)c1ccc2c(-c3ccc(C(=O)*)cc3C(=O)[O-])c3ccc(N(C)C)cc3[o+]c2c1

Assay [1] addresses T1, HLA-A*68:02 expressed on the cell surface (HeLaM cells, or HeLaM-HLA-ABC^KO cells reconstituted with … (human)).
T1 construct: whole, on cells; Carries the cells' own, unnamed peptides before exchange; also called HLA-A*A68:02
The experiment in a line: flow cytometry, time course with 10 nM fluorescent peptide (FIG. 1e). For orientation: Flow cytometry measures light scatter and fluorescence of single cells or particles in a stream.
Description: (§1) Target cell lines were seeded at 25,000-30,000 cells/well in 12-well plates and stimulated with IFN-γ. Following the stimulation period, the cells were washed 3 times with 1×PBS and incubated with 300 μL pre-warmed opti-MEM (Thermo Fisher Scientific, UK). […] After 15 min, the desired TAMRA-labelled peptide was added to the cells and incubated at 37° C. (15 min for HLA-A*68:02 or 60 min for HLA-A*02:01). […] Following the peptide treatment, the cells were washed three times in 1×PBS and harvested. The level of bound peptide/cell was determined by flow cytometry, using the YelFL1 channel (Cytek).

The target in assay [2] is T1, HLA-A*68:02 expressed on the cell …. The assay can be described thus: flow cytometry of fluorescent peptide on transduced HeLaM-TAPBPR^KO cells.
The target is the same in assay [3]. The assay can be described thus: flow cytometry, dose response of fluorescent peptide on HeLaM cell lines (FIG. 1d).
Description: as §1
For assay [4] the target is unchanged. The assay can be described thus: cell-based peptide exchange on HeLa^KOTAPBPR^WT cells, displacement of fluorescent peptide, flow cytometry.
Description: (§2) Cells were incubated with 10 nM fluorescent peptide for 15 min at 37° C., washed, then subsequently incubated with increasing concentrations of unlabeled competitor peptide for 15 min at 37° C.
(§3) First, cells were incubated with 10 nM fluorescently-labelled peptide for 15 min at 37° C. to allow surface MHC class I molecules to bind to labelled peptides. The, after extensive washing to remove any unbound fluorescent peptide, the ability of the cells to exchange the labelled peptide was assessed by incubating the cell with various unlabeled competitor peptides for 15 min at 37° C.
The target is the same in assay [5]. The assay can be described thus: flow cytometry of fluorescent peptide on IFN-γ treated HeLaM cell lines, 15 min at 37° C.
Description: as §1
The target is the same in assay [6]. The assay can be described thus: cell-based peptide exchange: no dissociation of fluorescent peptide from HLA-A*68:02 on HeLa^KOTAPBPR^WT cells.
Description: as §2, §3
Assay [7] shares this target. The assay can be described thus: flow cytometry with PeTe-4 on HeLaM, HeLaM-HLA-ABC^KO and HLA-A*68:02 reconstituted cells, 100 nM protein, 15 min at 37° C.
Excerpt: Line graphs show MFI−/+s.e.m from three independent experiments. […] (i) Bar graphs showing the MFI of fluorescent peptide binding to HeLaM HLA-ABC^KO+A2−/+s.e.m from two independent experiments with duplicates. ***P≤0.001, ****P≤0.0001, n/s not significant, using unpaired two-tailed t-test.
Assay [8] shares this target. The experiment in a line: flow cytometry of TAPBPR on HeLaM cells without surface GFP.
Assay [9] addresses T2, UDP-glucose:glycoprotein glucosyltransferase 1 (UGT1) (UniProt Q9NYU2 43-1555).
T2 construct: Detected by Western blot in TAPBPR immunoprecipitates
The assay can be described thus: immunoprecipitation of the intracellular TAPBPR pool, Western blot for UGT1.
Description: Nuclei and cell debris were pelleted by centrifugation at 13,000×g for 15 min and supernatants were collected. Immunoprecipitation was performed with Pete4 antibody coupled to protein A sepharose (GE Healthcare) for 2 h at 4° C. with rotation. Following immunoprecipitation, beads were washed thoroughly in 0.1% detergent-TBS to remove unbound protein. […] In order to analyse the samples by western blotting, proteins were transferred onto an Immobilon transfer membrane (Merck Millipore). Membranes were blocked using 5% (w/v) dried milk and 0.1% (v/v) Tween 20 in PBS for 30 min and subsequently incubated with the indicated primary antibody for 1-16 h. After washing, membranes were incubated with species-specific HRP-conjugated secondary antibodies, washed and detected by enhanced chemiluminescence using Western Lightning (Perkin Elmer, UK) and Super RX film (Fujifilm, UK). Films were scanned on a CanoScan8800F using MX Navigator Software (Canon, UK).

T2 sequence (Q9NYU2 43-1555 limits assumed): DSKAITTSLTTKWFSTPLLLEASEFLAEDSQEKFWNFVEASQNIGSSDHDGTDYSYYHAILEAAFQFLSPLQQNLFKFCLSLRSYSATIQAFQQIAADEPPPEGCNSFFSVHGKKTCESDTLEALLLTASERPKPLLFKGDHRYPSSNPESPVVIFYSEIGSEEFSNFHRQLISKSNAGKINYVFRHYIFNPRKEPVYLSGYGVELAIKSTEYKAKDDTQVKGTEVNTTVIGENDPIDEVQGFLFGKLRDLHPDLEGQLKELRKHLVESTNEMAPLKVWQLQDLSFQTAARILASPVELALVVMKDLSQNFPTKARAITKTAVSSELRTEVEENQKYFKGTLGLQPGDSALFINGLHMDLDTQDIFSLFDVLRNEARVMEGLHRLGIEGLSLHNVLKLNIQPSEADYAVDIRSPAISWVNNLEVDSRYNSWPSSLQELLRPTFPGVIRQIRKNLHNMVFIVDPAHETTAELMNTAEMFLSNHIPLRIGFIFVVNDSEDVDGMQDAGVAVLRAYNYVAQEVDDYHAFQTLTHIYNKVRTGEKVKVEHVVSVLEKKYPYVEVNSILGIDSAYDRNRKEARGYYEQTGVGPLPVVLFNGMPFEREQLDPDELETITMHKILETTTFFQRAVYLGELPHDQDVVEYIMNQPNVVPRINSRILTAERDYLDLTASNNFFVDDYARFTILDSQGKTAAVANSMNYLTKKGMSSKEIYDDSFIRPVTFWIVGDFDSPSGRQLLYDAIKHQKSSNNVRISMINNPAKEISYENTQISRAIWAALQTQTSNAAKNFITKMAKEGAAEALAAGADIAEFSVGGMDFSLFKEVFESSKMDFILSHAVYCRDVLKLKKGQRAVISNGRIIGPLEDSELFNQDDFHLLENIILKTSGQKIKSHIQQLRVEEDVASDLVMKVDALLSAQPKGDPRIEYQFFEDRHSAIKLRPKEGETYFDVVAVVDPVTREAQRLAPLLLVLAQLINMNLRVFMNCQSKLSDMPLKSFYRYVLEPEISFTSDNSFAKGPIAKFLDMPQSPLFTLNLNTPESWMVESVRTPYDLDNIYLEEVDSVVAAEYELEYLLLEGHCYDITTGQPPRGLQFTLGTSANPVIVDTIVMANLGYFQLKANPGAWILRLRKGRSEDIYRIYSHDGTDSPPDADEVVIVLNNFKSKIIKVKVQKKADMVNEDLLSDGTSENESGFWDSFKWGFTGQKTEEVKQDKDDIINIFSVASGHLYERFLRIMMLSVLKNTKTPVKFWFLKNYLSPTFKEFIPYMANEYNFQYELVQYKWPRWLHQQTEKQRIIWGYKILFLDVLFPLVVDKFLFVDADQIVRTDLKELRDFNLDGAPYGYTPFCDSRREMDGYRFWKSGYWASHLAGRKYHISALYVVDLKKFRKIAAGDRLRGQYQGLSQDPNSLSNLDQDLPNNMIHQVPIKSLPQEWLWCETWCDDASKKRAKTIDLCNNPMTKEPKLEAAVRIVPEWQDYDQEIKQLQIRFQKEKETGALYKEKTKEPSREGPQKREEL

B1: ETVSK*QSNV (fluorescent variant of the neoantigen …) (peptide)
peptide: ETVSK(TAMRA)QSNV
For the molecule B1, in assay [1], the “fold increase in fluorescent peptide bound to HeLaKO-TAPBPR^WT against the HeLaM and HeLaM^KO controls after 60 min” value came to 21 fold. In assay [2], the “fold less exogenous peptide binding on tapasin^PM cells than on TAPBPR^PM cells” value is around 10 times. For the same molecule, the “fold less efficient peptide binding to cells lacking surface TAPBPR than TAPBPR-promoted binding” value in assay [3] is around 120 times.

B2: ETVSEQSNV (unlabeled HLA-A*68:02-binding peptide) (peptide)
peptide: ETVSEQSNV
On to B2, for which the binding result in assay [4] was “binds”.

B3: EGVSK*QSNG (fluorescent non-binding variant with the anchor residues mutated) (peptide)
peptide: EGVSK(TAMRA)QSNG
notes: also called ETVΔ2/9
Consider B3, for which, in [5], the binding result was “no binding (tested: 10 nM)”.

B4: EGVSEQSNG (unlabeled derivative of … with the anchor residues at positions 2 and 9 replaced by glycine) (peptide)
peptide: EGVSEQSNG
notes: also called ETVΔ2/9
In the case of B4, in [6], the binding result is “no binding”.

B5: soluble TAPBPR^WT (secreted luminal domain of human TAPBPR, C-terminally His-tagged) (other)
chain: KPHPAEGQWRAVDVVLDCFLVKDGAHRGALASSEDRARASLVLKQVPVLDDGSLEDFTDFQGGTLAQDDPPIIFEASVDLVQIPQAEALLHADCSGKEVTCEISRYFLQMTETTVKTAAWFMANVQVSGGGPSISLVMKTPRVAKNEVLWHPTLNLPLSPQGTVRTAVEFQVMTQTQSLSFLLGSSASLDCGFSMAPGLDLISVEWRLQHKGRGQLVYSWTAGQGQAVRKGATLEPAQLGMARDASLTLPGLTIQDEGTYICQITTSLYRAQQIIQLNIQASPKVRLSLANEALLPTLICDIAGYYPLDVVVTWTREELGGSPAQVSGASFSSLRQSVAGTYSISSSLTAEPGSAGATYTCQVTHISLEEPLGASTQVVPPERR
notes: Made in 293T cells with the PiggyBac system and purified on Ni Sepharose; also called sol WT; exogenous TAPBPR^WT; not shown: C-terminal His tag
B5: the binding result in assay [7] was “binds”.

B6: YVVPFVAKV (unlabeled peptide) (peptide)
peptide: YVVPFVAKV
For B6, the binding result in [4] was “binds”.

B7: TAPBPR-GFPNB fusion protein (soluble TAPBPR fused to a nanobody specific for GFP, long linker) (other)
chain: KPHPAEGQWRAVDVVLDCFLVKDGAHRGALASSEDRARASLVLKQVPVLDDGSLEDFTDFQGGTLAQDDPPIIFEASVDLVQIPQAEALLHADCSGKEVTCEISRYFLQMTETTVKTAAWFMANVQVSGGGPSISLVMKTPRVAKNEVLWHPTLNLPLSPQGTVRTAVEFQVMTQTQSLSFLLGSSASLDCGFSMAPGLDLISVEWRLQHKGRGQLVYSWTAGQGQAVRKGATLEPAQLGMARDASLTLPGLTIQDEGTYICQITTSLYRAQQIIQLNIQASPKVRLSLANEALLPTLICDIAGYYPLDVVVTWTREELGGSPAQVSGASFSSLRQSVAGTYSISSSLTAEPGSAGATYTCQVTHISLEEPLGASTQVVPPERRHVGGGGSGGGGSGGGGSTSQVQLVESGGALVQPGGSLRLSCAASGFPVNRYSMRWYRQAPGKEREWVAGMSSAGDRSSYEDSVKGRFTISRDDARNTVYLQMNSLKPEDTAVYYCNVNVGFEYWGQGTQVTVSSK
notes: 21 aa leader left out; also called sTAPBPR-linker-GFPNB; sTAPBPR-GFP sdAb
As for B7, the binding result in assay [8] is given as “no binding (tested: 100 nM)”.

B8: YVVPFVAK*V (fluorescent variant of YVVPFVAKV) (peptide)
peptide: YVVPFVAK(TAMRA)V
Turning to B8, in [2], the “fold less exogenous peptide binding on tapasin^PM cells than on TAPBPR^PM cells” value was around 10 times.

B9: full-length TAPBPR^WT over-expressed in HeLaM-TAPBPR^KO cells (other)
chain: KPHPAEGQWRAVDVVLDCFLVKDGAHRGALASSEDRARASLVLKQVPVLDDGSLEDFTDFQGGTLAQDDPPIIFEASVDLVQIPQAEALLHADCSGKEVTCEISRYFLQMTETTVKTAAWFMANVQVSGGGPSISLVMKTPRVAKNEVLWHPTLNLPLSPQGTVRTAVEFQVMTQTQSLSFLLGSSASLDCGFSMAPGLDLISVEWRLQHKGRGQLVYSWTAGQGQAVRKGATLEPAQLGMARDASLTLPGLTIQDEGTYICQITTSLYRAQQIIQLNIQASPKVRLSLANEALLPTLICDIAGYYPLDVVVTWTREELGGSPAQVSGASFSSLRQSVAGTYSISSSLTAEPGSAGATYTCQVTHISLEEPLGASTQVVPPERRTALGVIFASSLFLLALMFLGLQRRQAPTGLGLLQAERWETTSCADTQSSHLHEDRTARVSQPS
notes: V41_G151_V169 polymorphisms as used in the studies; also called surface TAPBPR; HeLa^KOTAPBPR^WT
For B9, in assay [9], the binding result is “binds”.
